Residue numbers refer to the chain shown, from its start. Numbers in names are those of the source.
Key:
[1] = target: T1, recombinant human AceCS2^myc-His (residues 38-689, C-terminal myc-His tag, purified from E. coli), acetylated at Lys642 (UniProt Q9NUB1)
T1 sequence: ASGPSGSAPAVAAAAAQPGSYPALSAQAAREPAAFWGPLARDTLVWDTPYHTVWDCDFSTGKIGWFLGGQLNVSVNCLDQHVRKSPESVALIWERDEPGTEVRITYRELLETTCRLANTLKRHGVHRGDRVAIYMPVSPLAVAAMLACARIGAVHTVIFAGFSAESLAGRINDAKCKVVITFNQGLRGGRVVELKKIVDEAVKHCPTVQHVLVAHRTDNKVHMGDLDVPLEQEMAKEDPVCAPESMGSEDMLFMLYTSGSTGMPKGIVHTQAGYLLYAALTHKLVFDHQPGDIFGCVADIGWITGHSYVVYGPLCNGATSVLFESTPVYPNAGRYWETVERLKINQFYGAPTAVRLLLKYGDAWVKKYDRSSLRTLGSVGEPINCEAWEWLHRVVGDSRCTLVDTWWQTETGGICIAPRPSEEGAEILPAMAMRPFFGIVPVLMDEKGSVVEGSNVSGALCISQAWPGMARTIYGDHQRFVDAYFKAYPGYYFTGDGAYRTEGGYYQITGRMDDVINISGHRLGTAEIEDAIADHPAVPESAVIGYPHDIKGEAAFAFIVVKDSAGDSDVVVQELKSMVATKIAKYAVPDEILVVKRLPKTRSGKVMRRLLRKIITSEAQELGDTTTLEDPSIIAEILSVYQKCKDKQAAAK

[2] = target: T2, recombinant human AceCS2^myc-His (residues 38-689, C-terminal myc-His tag, purified from E. coli), acetylated at Lys642, Q9NUB1
T2 chain: T1 sequence

Molecule: recombinant human SIRT5 lacking the first 38 residues (residues 39-310, myc-His tagged)
- in vitro deacetylation of AceCS2 (immunoblot with acetyl-lysine-specific antibodies) [1]: both recombinant SIRT5 proteins failed to do so

Molecule: recombinant human SIRT5 lacking the first 11 residues (residues 12-310, myc-His tagged)
- in vitro deacetylation of AceCS2 (immunoblot with acetyl-lysine-specific antibodies) [1]: both recombinant SIRT5 proteins failed to do so

B1: Flag-tagged SIRT5 (SIRT5^Flag, expressed in HEK293 or COS-1 cells) (protein)
chain: SSSMADFRKFFAKAKHIVIISGAGVSAESGVPTFRGAGGYWRKWQAQDLATPLAFAHNPSRVWEFYHYRREVMGSKEPNAGHRAIAECETRLGKQGRRVVVITQNIDELHRKAGTKNLLEIHGSLFKTRCTSCGVVAENYKSPICPALSGKGAPEPGTQDASIPVEKLPRCEEAGCGGLLRPHVVWFGENLDPAILEEVDRELAHCDLCLVVGTSSVVYPAAMFAPQVAARGVPVAEFNTETTPATNRFRFHFQGPCGTTLPEALACHENETVS
- in vitro deacetylation of AceCS2 (immunoblot with acetyl-lysine-specific antibodies) [2]: it failed to deacetylate AceCS2

B2: recombinant human SIRT3 (residues 102-399, myc-His tagged, purified from E. coli) (protein)
chain: ISFSVGASSVVGSGGSSDKGKLSLQDVAELIRARACQRVVVMVGAGISTPSGIPDFRSPGSGLYSNLQQYDLPYPEAIFELPFFFHNPKPFFTLAKELYPGNYKPNVTHYFLRLLHDKGLLLRLYTQNIDGLERVSGIPASKLVEAHGTFASATCTVCQRPFPGEDIRADVMADRVPRCPVCTGVVKPDIVFFGEPLPQRFLLHVVDFPMADLLLILGTSLEVEPFASLTEAVRSSVPRLLINRDLVGPLAWHPRSRDVAQLGDVVHGVESLVELLGWTEEMRDLVQRETGKLDGPDK
- acetyl-CoA synthetase specific activity of AceCS2 after incubation with SIRT3 [2]: deacetylation by SIRT3 was associated with a significant increase in enzymatic activity
- in vitro deacetylation of AceCS2 (immunoblot with acetyl-lysine-specific antibodies) [2]: recombinant SIRT3 effectively deacetylated AceCS2
- in vitro deacetylation of hyperacetylated AceCS2 with NAD^+ [2]: This treatment led to a complete deacetylation of AceCS2
- time course of AceCS2 deacetylation and of its enzymatic activity [2]: incubation of AceCS2 with SIRT3 and NAD^+ caused a progressive deacetylation of AceCS2 over time

B3: Flag-tagged SIRT3 (SIRT3^Flag, expressed in HEK293 or COS-1 cells) (protein)
chain: B2 chain
- in vitro deacetylation of AceCS2 (immunoblot with acetyl-lysine-specific antibodies) [2]: immunoprecipitated Flag-tagged SIRT3 deacetylated AceCS2 in a NAD^+-dependent manner

B4: recombinant human SIRT3-H248Y (residues 102-399, myc-His tagged, purified from E. coli), catalytically inactive mutant (protein)
chain: B2 chain with H147Y
- in vitro deacetylation of AceCS2 (immunoblot with acetyl-lysine-specific antibodies) [2]: the catalytically inactive SIRT3-H248Y mutant did not deacetylate AceCS2, despite the presence of NAD^+
- in vitro deacetylation of hyperacetylated AceCS2 with NAD^+ [2]: No deacetylation of AceCS2 was observed when NAD^+ was omitted from the reaction, or when a catalytically inactive SIRT3 mutant (H248Y) was used
- time course of AceCS2 deacetylation [2]: could not be observed with the inactive SIRT3-H248Y mutant

B5: Flag-tagged SIRT4 (protein)
chain: IGLFVPASPPLDPEKVKELQRFITLSKRLLVMTGAGISTESGIPDYRSEKVGLYARTDRRPIQHGDFVRSAPIRQRYWARNFVGWPQFSSHQPNPAHWALSTWEKLGKLYWLVTQNVDALHTKAGSRRLTELHGCMDRVLCLDCGEQTPRGVLQERFQVLNPTWSAEAHGLAPDGDVFLSEEQVRSFQVPTCVQCGGHLKPDVVFFGDTVNPDKVDFVHKRVKEADSLLVVGSSLQVYSGYRFILTAWEKKLPIAILNIGPTRSDDLACLKLNSRCGELLPLIDPC
- in vitro deacetylation of AceCS2 [2]: did not deacetylate AceCS2 (data not shown)

From US20090061015
